These are literature values, as cited in PMC10532153, “Interactions of the N- and C-Terminal SH3 Domains of Drosophila Drk with the Proline-Rich Peptides from Sos and Dos” (International Journal of Molecular Sciences, 2023).

For the data set, the target named is T1, Drk-CSH3 (Drosophila melanogaster, UniProt Q08012).
T1 construct: its N- and C-terminal SH3 domains (Drk-NSH3 and Drk-CSH3, respectively); made in house
Conditions: previous paper on Drk-CSH3; read-out: Kd for Drk-CSH3, nine-residue (“shorter”) Dos peptides. An excerpt: Table 1 The calculated dissociation constants (Kds) for Sos- and Dos-derived peptides.

T1 sequence (Q08012 152-211 limits assumed): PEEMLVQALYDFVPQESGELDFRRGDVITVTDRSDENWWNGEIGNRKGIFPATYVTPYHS

Broadly, the Kd is the equilibrium constant for the complex coming apart. For PPVNRKLKP [shorter Dos-S1], the Kd is about 1.4 mM.

For PSVDRKCKP [shorter Dos-S2], the dissociation constant (Kd) is about 4.8 mM.
